Measurements taken from patent US20180306788.

B1: HA-PHD3 (hemagglutinin-tagged prolyl hydroxylase 3, transiently overexpressed in 293T cells) (protein)
chain: MPLGHIMRLDLEKIALEYIVPCLHEVGFCYLDNFLGEVVGDCVLERVKQLHCTGALRDGQLAGPRAGVSKRHLRGDQITWIGGNEEGCEAISFLLSLIDRLVLYCGSRLGKYYVKERSKAMVACYPGNGTGYVRHVDNPNGDGRCITCIYYLNKNWDAKLHGGILRIFPEGKSFIADVEPIFDRLLFFWSDRRNPHEVQPSYATRYAMTVWYFDAEERAEAKKKFRNLTRKTESALTED
B2: recombinant PHD3 (in vitro hydroxylation assay) (protein)
chain: B1 chain

Key:
[1] = target: acetyl-CoA carboxylase 2 (ACC2), wild type
[2] = target: T1, control ACC2 proline-containing peptide (P966)
T1 chain: ARLELDDPSKVHPAE

[3] = target: T2, synthetic ACC2 peptide containing P2131
T2 chain: AGQVWFPDSAYKTAQ

[4] = target: T3, synthetic ACC2 peptide containing P450
T3 chain: ERIGFPLMIKASEGGGGK

Row | Protein | in vitro ACC activity assay ([14C]malonyl-CoA from [14C]bicarbonate, 293T lysates) [1] | in vitro ACC activity assay ([14C]malonyl-CoA from [14C]bicarbonate, 293T lysates) (ACC2 P450A point mutant) | reconstituted in vitro radioactivity-based hydroxylation assay ([14C]CO2 release) [2] | reconstituted in vitro radioactivity-based hydroxylation assay ([14C]CO2 release) [3] | reconstituted in vitro radioactivity-based hydroxylation assay ([14C]CO2 release) [4]
1 | B1 | PHD3 overexpression amplified wild-type ACC2 activity | had no effect on the P450A variant | – | – | –
2 | B2 | – | – | but not a peptide containing P2131 or a control ACC2 proline-containing peptide (P966) | but not a peptide containing P2131 | recombinant PHD3 was shown to hydroxylate a synthetic ACC2 peptide containing P450
